Experimental data from US20020081601A1, “Methods and compositions for diagnosis and treatment of cancer based on the transcription factor ets2” (MUSC Foundation For Research Development., priority 1998, published 2002).

System: DU145
Experiment: Soft agar growth assay (anchorage independent growth)
Type: cell-based, human
Details: DN-ETS2 transfectants vs DU145 parental; after three weeks
Procedure: Soft agar growth assays were performed in six-well plates (35-mm wells). Cells (20,000) were plated in 0.4% agar (Sigma) in RPMI 1640 supplemented with 10% FBS. An underlayer of 0.8% agar was used to prevent attachment of cells. Triplicate assays initiated with 20,000 cells were fed weekly by agar overlay and scored after 3 weeks. The soft agar assays were performed twice, independently.

B1: DN-ETS2: dominant negative ETS2 mutant: DNA binding domain (C-terminal amino acids 334-469) of human ETS2, expressed from pDN-ETS2 (protein, UniProt P15036 334-469, looked up, fragment)
chain: YIQERSDPVEQGKPVIPAAVLAGFTGSGPIQLWQFLLELLSDKSCQSFISWTGDGWEFKLADPDEVARRWGKRKNKPKMNYEKLSRGLRYYYDKNIIHKTSGKRYVYRFVCDLQNLLGFTPEELHAILGVQPDTED
- anchorage-independent growth in soft agar: do not grow well in soft agar
